Source: paper PMC6405950, “Structure-function relationship of a citrus salicylate methylesterase and role of salicylic acid in citrus canker resistance” (Scientific Reports, 2019)
Changes are numbered by the printed parent chain. In names and notes the source's numbering stands.

Columns and labels:
CsMES1 = target: T1, CsMES1 (Citrus sinensis, UniProt A0A067GV78); assay: ITC; also esterase inhibition (IC50 […] at […] MeSA); format: binding
T1 construct: gene CISIN_1g024065mg; recombinant CsMES1 (KDO79352) from pET28a in E. coli
T1 sequence (A0A067GV78 1-267): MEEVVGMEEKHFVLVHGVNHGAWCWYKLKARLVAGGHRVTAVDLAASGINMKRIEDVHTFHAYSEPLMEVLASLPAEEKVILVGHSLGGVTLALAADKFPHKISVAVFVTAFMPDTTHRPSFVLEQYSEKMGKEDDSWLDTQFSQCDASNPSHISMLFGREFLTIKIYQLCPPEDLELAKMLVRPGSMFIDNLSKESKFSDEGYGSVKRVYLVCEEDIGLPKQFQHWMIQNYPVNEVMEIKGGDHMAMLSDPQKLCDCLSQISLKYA

CsMES1 V18A = target: T2, CsMES1 V18A (Citrus sinensis, UniProt A0A067GV78, V18A); assay: biochemical; format: binding
T2 construct: gene CISIN_1g024065mg; recombinant CsMES1 (KDO79352) from pET28a in E. coli
T2 sequence (A0A067GV78 1-267 V18A): T1 sequence (A0A067GV78 1-267) with V18A

CsMES1 V18S = target: T3, CsMES1 V18S (Citrus sinensis, UniProt A0A067GV78, V18S); assay: biochemical; format: binding
T3 construct: gene CISIN_1g024065mg; optimized CsMES1 V18S synthetic gene in pET28a, recombinant from E. coli
T3 sequence (A0A067GV78 1-267 V18S): T1 sequence (A0A067GV78 1-267) with V18S

[1] = target: Citrus sinensis salicylate methylesterase CsMES1 (recombinant, wild type) (Citrus sinensis); assay: SEC; analytical gel filtration on Superdex 75 10/300 in SEC buffer (137 mM NaCl, 10 mM Na2HPO4, 2.7 mM KCl, 2 mM KH2PO4, pH 7.5); mass estimated from standards (bovine serum albumin, ovalbumin, lysozyme)
[2] = substrate: COC(=O)c1ccccc1O; assay: MeSA esterase kinetics, SA fluorescence (Km); format: biochemical, Citrus sinensis; conditions: active site

O=C(c1ccccc1)C(F)(F)F [TriFA, 2,2,2-Trifluoroacetophenone]
Kd (CsMES1): 7100 nM
Kd (CsMES1 V18A): ~300 nM
Kd (CsMES1 V18S): ~300 nM

Citrus sinensis salicylate methylesterase CsMES1 (recombinant, wild type) (enzyme)
stoichiometry N [1]: 2

B1: CsMES1 (Citrus sinensis) (protein)
chain: T1 sequence (A0A067GV78 1-267)
notes: recombinant CsMES1 (KDO79352) from pET28a in E. coli
Km [2]: 48.9 ± 15.63 µM
kcat [2]: 0.38 ± 0.06 s⁻¹

B2: CsMES1 V18A (Citrus sinensis; V18A) (protein)
chain: T1 sequence (A0A067GV78 1-267) with V18A
notes: as for B1
Km [2]: 11.7 ± 0.97 µM

B3: CsMES1 V18S (Citrus sinensis; V18S) (protein)
chain: T1 sequence (A0A067GV78 1-267) with V18S
notes: optimized CsMES1 V18S synthetic gene in pET28a, recombinant from E. coli
Km [2]: 16.1 ± 0.23 µM
